Experimental data reported in patent US20050282743A1, “Molecular interactions in cells” (Arbor Vita Corporation, priority 2001, published 2005).

T1: GST-LIM Mystique PDZ domain 1 (Homo sapiens (Human)), Q96JY6
T1 chain: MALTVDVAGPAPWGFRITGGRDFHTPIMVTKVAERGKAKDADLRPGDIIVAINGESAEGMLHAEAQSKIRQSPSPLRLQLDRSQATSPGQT

T2: GST-INADL PDZ domain 3 (Homo sapiens (Human)), Q8NI35
T2 chain: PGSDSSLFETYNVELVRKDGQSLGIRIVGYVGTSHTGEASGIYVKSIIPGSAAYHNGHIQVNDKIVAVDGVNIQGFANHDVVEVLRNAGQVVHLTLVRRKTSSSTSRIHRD

T3: GST-KIAA0382 PDZ domain 1 (Canis lupus familiaris (Dog) (Canis familiaris)), A0A8I3
T3 chain: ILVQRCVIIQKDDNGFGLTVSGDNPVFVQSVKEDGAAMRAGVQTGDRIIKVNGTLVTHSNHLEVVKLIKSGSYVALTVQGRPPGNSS

T4: GST-MINT1 PDZ domains 1, 2, Q02410
T4 chain: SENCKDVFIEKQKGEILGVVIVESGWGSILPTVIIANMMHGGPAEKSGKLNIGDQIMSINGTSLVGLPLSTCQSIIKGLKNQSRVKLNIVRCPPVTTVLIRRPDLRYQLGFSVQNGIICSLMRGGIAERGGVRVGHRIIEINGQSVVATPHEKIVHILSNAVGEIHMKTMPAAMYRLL

T5: GST-LIM-RIL PDZ domain 1 (Homo sapiens (Human)), P50479
T5 chain: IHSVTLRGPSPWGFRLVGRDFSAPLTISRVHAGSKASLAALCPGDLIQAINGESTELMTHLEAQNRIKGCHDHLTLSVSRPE

T6: GST-Syntrophin gamma 1 PDZ domain 1 (Homo sapiens (Human)), Q9NSN8
T6 chain: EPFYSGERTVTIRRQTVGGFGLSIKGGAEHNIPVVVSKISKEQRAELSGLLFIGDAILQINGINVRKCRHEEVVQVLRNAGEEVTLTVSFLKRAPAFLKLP

T7: GST-MINT1 PDZ domain 2 (Mus musculus (Mouse)), B2RUJ5
T7 chain: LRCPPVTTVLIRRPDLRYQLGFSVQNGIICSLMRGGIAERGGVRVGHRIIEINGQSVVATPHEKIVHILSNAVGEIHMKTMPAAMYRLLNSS

T8: GST-TIP1 PDZ domain 1 (Table 9 insert) (Homo sapiens (Human)), O14907
T8 chain: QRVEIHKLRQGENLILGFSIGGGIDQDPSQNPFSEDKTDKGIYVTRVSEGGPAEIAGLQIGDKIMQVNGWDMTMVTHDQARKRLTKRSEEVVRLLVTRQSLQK

T9: GST-APXL-1 PDZ domain 1 (Homo sapiens (Human)), Q13796
T9 chain: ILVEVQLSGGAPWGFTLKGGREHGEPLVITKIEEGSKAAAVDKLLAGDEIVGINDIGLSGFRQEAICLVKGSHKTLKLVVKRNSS

T10: GST-Outer Membrane PDZ domain 1 (Homo sapiens (Human)), P57105
T10 chain: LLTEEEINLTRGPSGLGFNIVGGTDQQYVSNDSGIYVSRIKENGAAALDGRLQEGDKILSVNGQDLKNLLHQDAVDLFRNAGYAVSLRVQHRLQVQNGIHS

T11: GST-PTPL1 PDZ domain 2 (Homo sapiens (Human)), Q12923
T11 chain: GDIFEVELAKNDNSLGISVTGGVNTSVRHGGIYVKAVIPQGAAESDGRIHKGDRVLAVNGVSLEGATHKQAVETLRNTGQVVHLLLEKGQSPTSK

T12: GST-FLJ00011 PDZ domain 1 (Homo sapiens (Human)), Q9H5P4
T12 chain: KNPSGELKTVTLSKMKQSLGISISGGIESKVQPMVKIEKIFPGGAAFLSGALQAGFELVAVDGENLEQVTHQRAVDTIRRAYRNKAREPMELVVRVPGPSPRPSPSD

T13: GST-FLJ 10324 PDZ domain 1 [GST: P08515]
T13 chain: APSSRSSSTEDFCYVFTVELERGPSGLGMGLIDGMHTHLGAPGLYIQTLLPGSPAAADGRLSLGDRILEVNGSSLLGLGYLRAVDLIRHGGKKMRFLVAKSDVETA

T14: GST-HEMBA 1003117 PDZ domain 1 (Homo sapiens (Human)), Q96JH8
T14 chain: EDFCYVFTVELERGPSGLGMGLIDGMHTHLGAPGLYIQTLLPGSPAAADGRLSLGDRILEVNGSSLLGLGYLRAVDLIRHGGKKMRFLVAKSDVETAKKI


Key:
Test in all cases: G' assay
[1] = target: T1, GST-LIM Mystique PDZ domain 1 (Homo …)
[2] = target: T2, GST-INADL PDZ domain 3 (Homo sapiens …)
[3] = target: GST-KIAA807 [GST: P08515]
[4] = target: T3, GST-KIAA0382 PDZ domain 1 (Canis lupus …)
[5] = target: T4, GST-MINT1 PDZ domains 1, 2, Q02410
[6] = target: GST-Atrophin-1 Interacting Protein PDZ domain 5 (Rattus norvegicus (Rat)), O88382
[7] = target: T5, GST-LIM-RIL PDZ domain 1 (Homo sapiens …)
[8] = target: T6, GST-Syntrophin gamma 1 PDZ domain 1 …
[9] = target: T7, GST-MINT1 PDZ domain 2 (Mus musculus …)
[10] = target: GST-BAI-1 Associated Protein PDZ domain 2 (Mus musculus (Mouse)), Q6RHR9
[11] = target: GST-Atrophin-1 Interacting Protein PDZ domain 3 (Rattus norvegicus (Rat)), O88382
[12] = target: T8, GST-TIP1 PDZ domain 1 (Table 9 insert) …
[13] = target: T9, GST-APXL-1 PDZ domain 1 (Homo sapiens …)
[14] = target: GST-KIAA1634 PDZ domain 5 (Homo sapiens (Human)), Q5TCQ9
[15] = target: T10, GST-Outer Membrane PDZ domain 1 (Homo …)
[16] = target: T11, GST-PTPL1 PDZ domain 2 (Homo sapiens …)
[17] = target: GST-BAI-1 Associated Protein PDZ domain 6 (Homo sapiens (Human)), Q96QZ7
[18] = target: T12, GST-FLJ00011 PDZ domain 1 (Homo sapiens …)
[19] = target: GST-PAR3 PDZ domain 3 (Homo sapiens (Human)), Q8TEW0
[20] = target: T13, GST-FLJ 10324 PDZ domain 1 [GST: P08515]
[21] = target: T14, GST-HEMBA 1003117 PDZ domain 1 (Homo …)
Further: key of the grades not given here.

Chain of GST-KIAA1634 PDZ domain 5 (Homo sapiens (Human)), Q5TCQ9 (Q5TCQ9 other isoform, or with tags, fused parts or gaps): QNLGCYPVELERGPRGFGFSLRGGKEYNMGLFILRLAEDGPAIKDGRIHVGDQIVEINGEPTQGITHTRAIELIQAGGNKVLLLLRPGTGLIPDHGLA
Chain of GST-Atrophin-1 Interacting Protein PDZ domain 3 (Rattus norvegicus (Rat)), O88382 (O88382 774-865, tags or fused parts left off): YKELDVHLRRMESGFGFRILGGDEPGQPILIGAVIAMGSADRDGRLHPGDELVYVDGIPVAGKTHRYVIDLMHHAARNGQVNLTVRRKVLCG
Chain of GST-BAI-1 Associated Protein PDZ domain 6 (Homo sapiens (Human)), Q96QZ7 (Q96QZ7 1143-1233): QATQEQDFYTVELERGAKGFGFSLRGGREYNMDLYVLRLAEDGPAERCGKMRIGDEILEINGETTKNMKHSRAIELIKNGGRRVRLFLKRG
Chain of GST-BAI-1 Associated Protein PDZ domain 2 (Mus musculus (Mouse)), Q6RHR9 (Q6RHR9 455-558): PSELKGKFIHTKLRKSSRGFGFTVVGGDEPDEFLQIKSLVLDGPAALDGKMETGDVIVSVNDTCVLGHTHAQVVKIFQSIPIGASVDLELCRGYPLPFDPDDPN
Chain of GST-PAR3 PDZ domain 3 (Homo sapiens (Human)), Q8TEW0 (Q8TEW0 579-681): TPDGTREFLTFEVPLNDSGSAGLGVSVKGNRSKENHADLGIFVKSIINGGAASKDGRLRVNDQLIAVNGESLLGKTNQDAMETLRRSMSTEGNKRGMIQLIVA
Chain of GST-Atrophin-1 Interacting Protein PDZ domain 5 (Rattus norvegicus (Rat)), O88382 (O88382 1128-1225): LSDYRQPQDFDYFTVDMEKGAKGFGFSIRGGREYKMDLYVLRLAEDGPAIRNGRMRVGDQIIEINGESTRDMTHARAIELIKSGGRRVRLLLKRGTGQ
Chain of GST-KIAA807 [GST: P08515] (P08515 whole entry, the tested form may be a part): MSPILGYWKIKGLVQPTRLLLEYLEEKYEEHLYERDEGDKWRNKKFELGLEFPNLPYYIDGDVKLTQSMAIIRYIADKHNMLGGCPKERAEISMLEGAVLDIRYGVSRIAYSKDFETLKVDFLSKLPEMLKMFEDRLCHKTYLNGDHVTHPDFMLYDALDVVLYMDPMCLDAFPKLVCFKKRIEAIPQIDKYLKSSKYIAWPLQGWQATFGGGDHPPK

| Binder | Classification [1] [A450 class] | Classification [2] [A450 class] | Classification [3] [A450 class] | Classification [4] [A450 class] | Classification [5] [A450 class] | Classification [6] [A450 class] | Classification [7] [A450 class] | Classification [8] [A450 class] | Classification [9] [A450 class] | Classification [10] [A450 class] | Classification [11] [A450 class] | Classification [12] [A450 class] | Classification [13] [A450 class] | Classification [14] [A450 class] | Classification [15] [A450 class] | Classification [16] [A450 class] | Classification [17] [A450 class] | Classification [18] [A450 class] | Classification [20] [A450 class] | Classification [21] [A450 class] | other results |
| --- | --- | --- | --- | --- | --- | --- | --- | --- | --- | --- | --- | --- | --- | --- | --- | --- | --- | --- | --- | --- | --- |
| TQGFPGPATWRRISSLESEV (modifications not checked) [NMDA Glutamate Receptor 2C (cysteine-free)] | 4 | 2 | 4 | 1 | 1 | 5 | 5 | 4 | 1 | 4 | 2 | 5 | 1 | 1 | 5 | 5 | 2 | 2 | – | – | – |
| ILNSIQVMRAQMNQIQSVEV (modifications not checked) [ephrin B2] | 1 | 2 | 2 | 2 | 2 | 2 | 2 | 2 | 3 | – | 1 | 2 | 1 | – | – | 2 | 2 | 2 | 2 | 2 | Classification [19]: 2 A450 class |
| AWDDSARAAGGQGLHVTAL (modifications not checked) [LPAP] | – | – | 5 | 5 | 1 | 2 | – | – | 1 | 2 | – | 5 | 1 | – | – | 1 | – | 4 | 1 | 1 | – |
| PIPAGGCTFSGIFPTLTSPL (modifications not checked) [KIA 1481] | – | – | 5 | 5 | 3 | – | – | – | 3 | 2 | – | 2 | 5 | 1 | – | – | 2 | 2 | – | – | – |
| KTMPAAMYRLLTAQEQPVYI (modifications not checked) [MINT-1] | – | – | 4 | 1 | 5 | – | – | – | – | – | – | – | – | – | – | – | – | – | 5 | 3 | Classification [19]: 5 A450 class |
| VPGALDYAAFSSALYGESDL (modifications not checked) [a-actinin 2] | 5 | 1 | 5 | – | 1 | 5 | 5 | 1 | 1 | 1 | – | 5 | 5 | 5 | 1 | 1 | 5 | – | – | – | Classification [19]: 1 A450 class |
| QISPGGLEPPSEKHFRETEV (modifications not checked) [TAX] | 1 | 1 | 5 | – | – | 3 | 1 | 5 | – | 5 | 1 | 5 | – | 1 | 5 | 2 | 1 | 1 | 1 | – | – |
| ELLQFCRTPNPALKNGQYWV (modifications not checked) [CSPG4 (chondroitin sulfae proteoglycan 4, melanoma-associated)] | 2 | 3 | 1 | – | 5 | 2 | 2 | – | 5 | 2 | 2 | 1 | 3 | 2 | 1 | – | 4 | – | 5 | 5 | Classification [19]: 3 A450 class |
| PYSELNYETSHYPASPDSWV (modifications not checked) [catenin - delta 2] | 5 | – | 4 | – | 5 | 5 | 2 | 1 | 3 | – | 1 | 3 | – | 3 | 5 | 5 | – | – | 3 | 1 | Classification [19]: 1 A450 class |
| VGTLLLERVIFPSVKIATLV (modifications not checked) [AdenoE4 typ9] | – | – | 4 | 1 | 2 | – | – | – | 2 | 5 | 4 | – | – | – | 5 | 3 | 1 | 1 | 3 | 3 | – |
| HDFRRAFKKILARGDRKRIV (modifications not checked) [alpha-2A Adrenergic receptor] | 1 | 2 | – | – | – | 1 | – | 2 | – | – | – | – | 1 | – | – | 2 | 3 | – | 1 | 1 | Classification [19]: 2 A450 class |
